Consider five molecules from US20220154156A1, “PROTEINS AND METHODS FOR DISRUPTING BACTERIAL COMMUNICATION” (REGENTS OF THE UNIVERSITY OF MINNESOTA, priority 2019, published 2022).

Where “and” joins values, the source holds several entries; their conditions need not be identical. Equal entries are not always repeated. Numbered stars: 1 amine (or outer) side, 2 acyl side, 3 side chain; on linkers, the order of the positions; unused ones are H or OH. Bridge positions count the residues as written; N and C are the ends. Square brackets hold non-standard residues; d marks the D form. Peptide text beside a SMILES is read from it. X1 = CC(C)CCCCCCCCC[C@H](CC(=O)[*:1])O[*:2]

Data set [1] deals with GcL, quorum quenching lactonase from Geobacillus caldoxylosilyticus (Parageobacillus caldoxylosilyticus) (Geobacillus caldoxylosilyticus (Parageobacillus caldoxylosilyticus)). The experiment in a line: X-ray crystal structure, homodimer interface analysis.
For data set [2], the system named is corrosion tubercles on steel coupons. The experiment in a line: Biocorrosion of coated steel coupons in Duluth-Superior Harbor water, 8 weeks. The conditions noted are these: silica gel coating, two months in DSH water. Also on record: concentration or dose not given beside the values. Here is the method: The steel coupons were washed with soap water, lightly brushed for a few seconds with a test tube brush, and then rinsed with Milli-Q water to remove any loose material. Each coupon was designated with a unique number and weighed before being randomly assigned to a specific experimental treatment.
Each compound or enzyme was added to 5 ml of the silica gel matrix to develop different coating treatments. These coatings were applied by dipping coupons into the appropriate gel mixture for 1 minute, and then the coating on the coupon surface was air-dried at room temperature for 2 hours.
Six treatments and three controls were investigated for corrosion rate and changes in bacterial communities (Table 10). Each treatment or control contained three replicate steel coupons. After the triplicate steel coupons were coated with each biochemical, enzyme or bacterial treatment, they were incubated in experimental microcosms constructed from 10-gallon glass aquaria (Aqueon Glass, 50.8 cm×25.4 cm×30.5 cm) (FIG. 24). Each microcosm was equipped with an aquarium pump (Aquarium Systems Mini-Jet 404) to constantly circulate the water (˜2 L hr−1), and covered with a piece of acrylic with one corner cut out to allow gas exchange. The coupons were hold with plastic holders and immersed in water taken from the DSH for 8 weeks and then recovered for analyses.
The coupons in each treatment was photographed by the end of the experiment. Biocorrosion was evaluated by the number and coverage of corrosion tubercles, and also by imaging of coupon surfaces with an environmental scanning electron microscope (ESEM). The coupon images were captured with DSLR camera immediately after being removed from the harbor water, and then tubercle numbers and total area in digital images were measured using the analyze menu within ImageJ software (NIH, Bethesda, Md., USA). Surface roughness measurements were also made after the exposed coupons were cleaned with ASTM G1-90 iron and steel chemical cleaning procedure (2 min in 37% HCl, 50 g/L SnCl2). A Hitachi TM-3030 ESEM was used to view details of the cleaned coupon surface and the 3D-View software was used to generate surface roughness measurements (SRa). Statistics analysis (T-tests) of the tubercle numbers, coverage and surface roughness were performed using Microsoft Excel software.

The test system of data set [3] is bacterial communities at the surface of the steel. The experiment in a line: 16S rDNA analysis of microbial community on steel coupons. Conditions: treated coupons. The protocol: After photo imaging, on each of the coupon surface, all material including biofilm and tubercles were scraped into a sterile 50 ml polypropylene centrifuge tube (Corning, N.Y., USA) using a steel scraper. A 0.5 g subsample of the surface material from each coupon sample was used for DNA extraction using PowerSoil DNA kit (MoBio Laboratories). The extracted DNA was used to sequence the V4 region of 16S rDNA gene and describe changes in the composition of bacterial communities. DNA samples were quantified with a NanoDrop 2000 Spectrophotometer (Thermo Scientific, Waltham, Mass. USA) and then sent overnight to the University of Minnesota Genomics Center for 16S rDNA sequencing. 30 samples were multiplexed into a single run of Illumina MiSeq paired-end 300 cycles, which was expected to generate a total of 15 million sequences of the 254 bp portions of the 16S rDNA V4 region.
Sequence data were processed and analyzed using the MOTHUR program. To ensure high quality data for analysis, sequence reads containing ambiguous bases, homopolymers >7 bp, more than one mismatch in the primer sequence, or an average per base quality score below 25 were removed. Sequences that only appear once in the total set were assumed to be a result of sequencing error and removed from the analysis. Chimeric sequences were also removed using the UCHIME algorithm within the MOTHUR program. […]

The subject of another data set is Pseudomonas aeruginosa. Kind of data set: Caenorhabditis elegans infection models (slow-killing, paralysis). In kind it is in vivo. Conditions: dose-dependent. From the text: FIG. 34A-34C show protection of Caenorhabditis elegans from infection by Pseudomonas aeruginosa by lactonases. Slow-killing, gut infection assay performed with P. aeruginosa. Lactonases SsoPox (A) and GcL (B) are sprayed in the petri dish plate, and final concentrations are given. (C) Paralysis assay by P. aeruginosa, and treatment with SsoPox. […] OP50 Escherichia coli strain serves as a non-virulent control.
The protection by lactonases is dose-dependent (FIG. 34) in both models.

Another data set concerns algae and Zebra mussels. Kind of data set: Antifouling activity of acrylic-lactonase coating, Lake Minnetonka, 1 month. The conditions noted are these: 200 μg/mL, polycarbonate, controls BSA, copper oxide. Here is the method: Various polycarbonate samples were submerged in Lake Minnetonka (Tonka bay marina) for 1 month. Coatings were prepared with 200 μg/mL of control ingredients (BSA or copper oxide (CuO)) and of lactonases (SsoPox and GcL). Large zebra mussels are circled.
We note that microscopy imaging highlights large differences in the surface colonization between the different treatments.

The conditions of data set [4]: at 75° C.; cited from earlier work.
Another data set deals with soil bacterial community. The experiment in a line: Different lactonases on soil microbial community (Example 8). It counts as cell-based. Conditions: 7 days, vs inactive SsoPox 5A8. Here is the method: Principal component analysis (PCA) based on deep bacterial 16S rDNA sequences (Illumina V4 region).
The same experiments as described above were performed on the same soil microbial community but with two different lactonases, GcL, and Ssopox W263I. These enzymes differ primarily by their substrate specificity. […] This is important because different bacteria use different AHLs to communicate. Indeed, The structure of AHLs vary a lot with respect to the length of N-acyl chains (from C4 to C18), the hydroxyl or oxo group of the acyl chain and the saturated or unsaturated state of the carbon chain^1. The hydrophobicity of AHLs relates to their passive diffusion through membranes. […] In fact, regulatory circuits may be interconnected, like in P. aeruginosa^6, and allow for compensatory responses: if the LasI/LasR system is inactivated, the RhlI/RhlR system can still control LasI/LasR-spectific functions^7.

Data set [5] can be described thus: Lactonase assay (pH indicator, cresol purple), kinetic measurements. It counts as biochemical. Here is the method: Kinetic measurements. The determination of GcL catalytic efficiency was performed by using a microplate reader (Synergy HTX, BioTek, USA) and the software Gen5.1 over a range of substrates (FIG. 2). The reactions were operate in a 96-well plate at a path length of 5.8 mm for a 200 μl reaction volume at room temperature. The catalytic parameters were achieved by fitting the data to Michaelis-Menten equation with the Graph-Pad Prism 5 software. When, Vmax was not reached, the catalytic efficiency was determined by fitting the linear part of Michaelis-Menten plot to a linear regression using Graph-Pad Prism 5.
Lactonase assay. The AHL lactonolysis consisting in the opening of the lactone ring generates a proton, and leads to an acidification of the media. This property allowed the characterization of the lactonases by using a pH indicator assay. To perform the experiment 5 μl of enzyme were added to a solution containing 10 μl of substrates at various concentrations and 185 μl of lactonase buffer (2.5 mM Bicine pH 8.3, 150 mM NaCl, 0.2 mM CoCl2, 0.2 mM cresol purple, 0.5% DMSO). This assay was performed at 25° C. and the time course of the lactones hydrolysis was recorded at 577 nm. The characterization of the enzyme was proceeding against a large panel of AHLs: C4-AHL, C6-AHL, C8-AHL, C10-AHL, 3-oxo-C8-AHL and against γ-Butyrolactone, γ-Heptalactone, γ-Nonalactone, γ-Decanolactone, δ-Valerolactone, δ-Octanolactone, δ-Nonalactone, δ-Decalactone, ε-Caprolactone, ε-Decalactone, Whiskey lactone.

Data set [6] can be described thus: Paraoxonase activity of SsoPox variants after incubation at 80° C. Conditions: compared with wt enzyme and SsoPox W263I. It counts as physicochemical.
A short description of data set [7]: Enzymatic characterization of SsoPox 6 and SsoPox 19. In kind it is biochemical. Conditions: esters, lactones and phosphotriesters; compared with wt. From the text: We determined the ability of these two variants to hydrolyze a wide range of substrates, including esters, lactones and phosphotriesters (FIG. 23).

“GcL, quorum quenching lactonase from Geobacillus caldoxylosilyticus (Parageobacillus caldoxylosilyticus) (from UniProt A3FJ64 1-250) (enzyme)”: the interface surface between dimer in data set [1] was 1180 Å^2.
With `CC(C)CCCCCCCCC[C@@H]1CC(=O)N[C@@H](CCC(=O)O)C(=O)N[C@@H](CC(C)C)C(=O)N[C@H](CC(C)C)C(=O)N[C@@H](C(C)C)C(=O)N[C@@H](CC(=O)O)C(=O)N[C@H](CC(C)C)C(=O)N[C@@H](CC(C)C)C(=O)O1` [surfactin] (EL[dL]VD[dL]L; linker N-C via X1), in [2], the “reduction of the coverage of corrosion tubercles” value is recorded as 37% and the “reduction of the number (formation) of corrosion tubercles” value amounted to 31%. Moreover, in data set [3], the “abundance of Burkholderiales, Pseudomonadales and Rhodospirillales” value is recorded as “significantly reduced”.

B1: SsoPox: lactonase isolated from Sulfolobus solfataricus, SEQ ID NO:5 (protein, listed as Sulfolobus solfataricus)
chain: GMVRISIAGGNEIDPGSMGLTLFHEHLRLITEVVRWNWPHLYNEDEELKRAIDAVNAAKKYGVKTIIDLTVAGIGCDVRFNEKVAKATGVNIIMGTGFYTYTEIPFYFKNRGIDSLVDAFVHDITIGIQGTNTRAAFVKAVIDSSGLTKDVEMAIRAAAKAHIKTDVPIITHSFVGNKSSLDLIRIFKEEGVDLARTVIGHVGDTDDISFIEQILREGAFIGLDRFGLDIYLPLDKRVKTAIELIKRGWIDQLLLSHDYCPTIDWYPPEVVRSTVPDWTMTLIFEKVIPRMRSEGITEEQINRVLIDNPRRLFTGR
With B1, the “survival of Caenorhabditis elegans” value in the data set with Pseudomonas aeruginosa is “increase survival”. Also, in the data set with algae and Zebra mussels, the inhibition of biofouling entry was “more efficient at inhibiting biofouling than controls”.

B2: GcL: lactonase isolated from the thermophilic bacteria Geobacillus caldoxylosilyticus, SEQ ID NO:1 (protein, listed as Parageobacillus caldoxylosilyticus)
chain: MTVKKLYFIPAGRCMLDHSSVNSALTPGKLLNLPVWCYLLETEEGPILVDTGMPESAVNNEGLFNGTFVEGQILPKMTEEDRIVNILKRVGYEPDDLLYIISSHLHFDHAGGNGAFTNTPIIVQRTEYEAALHREEYMKECILPHLNYKIIEGDYEVVPGVQLLYTPGHSPGHQSLFIETEQSGSVLLTIDASYTKENFEDEVPFAGFDPELALSSIKRLKEVVKKEKPIIFFGHDIEQEKSCRVFPEYI
With B2, in the data set on Pseudomonas aeruginosa, the “survival of Caenorhabditis elegans” value is on record as “increase survival”. Besides, the inhibition of biofouling result in the data set on algae and Zebra mussels is “more efficient at inhibiting biofouling than controls”. In addition, the half-life (in general, how long it takes for the measured level to halve) in data set [4] is 152.5 ± 10 min. The “planktonic microbial community composition” value with soil bacterial community is “induce differential planktonic microbial community biases”. For the same molecule, the substrate specificity result in data set [5] (AHL acyl chain length) is given as “proficiently degrades lactones ranging from C4 to C12 AHLs”. The catalytic efficiencies in data set [5] (AHLs with both short and long acyl chains) is on record as 10^4 to 10^6 M^−1·s^−1. Also, the Km – broadly, the substrate concentration at which the rate is half of its maximum – in [5] (range over tested substrates (with the exception of C4-AHL)) is 0.5 to 20 µM and 0.67 to 21.1 µM.

B3: SsoPox 19: SsoPox variant with 19 node 55 mutations, SEQ ID NO:13 (protein)
chain: MKIPLVGKDEIEPREMGFTLIHEHLRVFSEAVRQQWPHLYNEDEEFRNAVNEVKTAMSYGVKTIVDPTVMGLGRDIRFMEKVVKATGINVIAATGIYIYTDLPFYFNNRSIDEIADLFIHDIKEGIQGTNNKAGFVKVAADEPGITKDVEKVIRAAAIAHKETKVPIITHSNAHNNTGLEQQRILMEEGVDPGKILIGHLGDTDNIDYIKKIADKGSFIGLDRYGLDLFLPVDKRNETTLKLIKDGYSDKIMISHDYCCTIDWGTAKPEYKPKLAPRWSITLIFEDTIPFLKRNGVNEEVIATIFKENPKKFFS
modifications: SsoPox19 variant
With B3, the “paraoxon hydrolysis after incubation of different times at 80° C.” value in data set [6] is “withstanding better the incubation at 80 °C than the wt enzyme and SsoPox W263I”. Further, the activity levels entry in data set [7] is recorded as “extremely similar to those of the wt enzyme”.
